B1: TRAF-interacting protein with FHA domain-containing protein A (Homo sapiens), Q96CG3 (parent)
chain: MTSFEDADTEETVTCLQMTVYHPGQLQCGIFQSISFNREKLPSSEVVKFGRNSNICHYTFQDKQVSRVQFSLQLFKKFNSSVLSFEIKNMSKKTNLIVDSRELGYLNKMDLPYRCMVRFGEYQFLMEKEDGESLEFFETQFILSPRSLLQENNWPPHRPIPEYGTYSLCSSQSSSPTEMDENES
partner: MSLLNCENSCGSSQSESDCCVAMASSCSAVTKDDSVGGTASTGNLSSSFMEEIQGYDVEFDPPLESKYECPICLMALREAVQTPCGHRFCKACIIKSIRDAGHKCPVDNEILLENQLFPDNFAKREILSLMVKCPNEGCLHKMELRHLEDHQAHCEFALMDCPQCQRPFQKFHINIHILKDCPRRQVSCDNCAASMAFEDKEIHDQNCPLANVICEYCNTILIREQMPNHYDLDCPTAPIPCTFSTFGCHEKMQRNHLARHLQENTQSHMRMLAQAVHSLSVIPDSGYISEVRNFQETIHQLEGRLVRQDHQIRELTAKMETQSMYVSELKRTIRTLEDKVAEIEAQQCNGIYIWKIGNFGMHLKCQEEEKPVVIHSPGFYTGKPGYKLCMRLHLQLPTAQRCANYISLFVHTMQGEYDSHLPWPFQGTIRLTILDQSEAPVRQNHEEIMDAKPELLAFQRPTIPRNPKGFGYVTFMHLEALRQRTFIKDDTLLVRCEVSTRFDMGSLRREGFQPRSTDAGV

Variants of: B1
Settings: with traf6_human TRAF6, Q9Y4K3

Effect of a mutation on the interaction, disrupting interaction strength:
G50E;S66A
E178A
T9A

Reference: IntAct's records for PubMed 26068852
